B1: Neutrophil cytosol factor 2, residues 456 to 514; numbered along this chain, P19878 (parent)
chain: LKKGSQVEALFSYEATQPEDLEFQEGDIILVLSKVNEEWLEGECKGKVGIFPKVFVEDC

± gives the uncertainty stated by the source.

This data set covers variants of B1. In words: abundance fitness (aPCA) (normalised: wild type 0, dead -1); higher = more abundant; growth selection in yeast, the domain comes from the species named. The settings on record: Homo sapiens.
As for LKKGSQVEALFSYEATQPEDLEFQEGDIILVLSKVNEEWLEGECKGKVGIFPKVFVTDC [E57T], the abundance fitness came to 0.487 ± 0.087.

Take LKKGSQVEALFSYEATQPEDLEFQEGDIILVLSKVNEEWLEGECKGKVGIFPKVFVDDC [E57D]: the abundance fitness is -0.254 ± 0.17. For LKKGSQVEALFSYEATQPEDAEFQEGDIILVLSKVNEEWLEGECKGKVGIFPKVFVEDC [L21A] the value was -0.565 ± 0.14; for LKKGSQVEALFSYEATQPEDLEFQEGDIILVLSKVNEEWLEGECKGKVGVFPKVFVEDC [I50V], -0.298 ± 0.12. As for LKKGSQVEALFSYEATQPEDLEFQEGDIILVLSKVNDEWLEGECKGKVGIFPKVFVEDC [E37D], the abundance fitness came out at 0.069 ± 0.12. For LKKGSQVEALFSYEATQPEDLEFQEGDIILVLSKVNEEWLEGGCKGKVGIFPKVFVEDC [E43G] the value was -0.152 ± 0.11; for LKKGSQVEALFSYEATQFEDLEFQEGDIILVLSKVNEEWLEGECKGKVGIFPKVFVEDC [P18F], -0.634 ± 0.14.

As for LKKGSQVEALFSYEATQPEDLEFQGGDIILVLSKVNEEWLEGECKGKVGIFPKVFVEDC [E25G], the abundance fitness is -0.201 ± 0.1. Take LKKGSQVEALFSYEATQPEDLEFQEGDIILVLSKVNEEWLEGECSGKVGIFPKVFVEDC [K45S]: the abundance fitness was -0.691 ± 0.17. For LKKGSQVEALFSYEATQPEDLEFQEGDIILVLSKVNEEPLEGECKGKVGIFPKVFVEDC [W39P] the value was -0.598 ± 0.2; for LKKGSQVEALFSYEATQPEDLEFQEGMIILVLSKVNEEWLEGECKGKVGIFPKVFVEDC [D27M], -0.377 ± 0.26. In the case of LKKGSQVEALFSYEATQPEDLEFQEGRIILVLSKVNEEWLEGECKGKVGIFPKVFVEDC [D27R], the abundance fitness was -0.323 ± 0.11. The figure for LKKGSQVEALFSYEATQPEDLEFQEGSIILVLSKVNEEWLEGECKGKVGIFPKVFVEDC [D27S] is -0.666 ± 0.11; for LKKGSQVEALFSYEATQPEDLEFQEGDIILVLSKVNEEWLVGECKGKVGIFPKVFVEDC [E41V] it is -0.02 ± 0.091.

As to LKKGSQVEALFSYEATQPEDLEFQEGDIILVLSKVNEEWLHGECKGKVGIFPKVFVEDC [E41H], the abundance fitness is -0.682 ± 0.27. For LKKGSQVEALFSYEATQPEDLEFQEGDIILVLSKVNEEWIEGECKGKVGIFPKVFVEDC [L40I] the value was -0.183 ± 0.12; for LKKGSQVEALFSYEATQPEDLEFQEGDIILVLSKVNEEWLEGECKGKLGIFPKVFVEDC [V48L], -0.706 ± 0.15; for LKKGSQVEALFSYEATQPEDLEFQEHDIILVLSKVNEEWLEGECKGKVGIFPKVFVEDC [G26H], -0.398 ± 0.27. For LKKGSQVEALFSYEATYPEDLEFQEGDIILVLSKVNEEWLEGECKGKVGIFPKVFVEDC [Q17Y], the abundance fitness was -0.09 ± 0.12.

As to LKKGSQVEALFSYEATQPEDLTFQEGDIILVLSKVNEEWLEGECKGKVGIFPKVFVEDC [E22T], the abundance fitness was -0.24 ± 0.24. The figure for LKKGSQVEALFSYEATQPEDLEFQEGDIILVISKVNEEWLEGECKGKVGIFPKVFVEDC [L32I] is -0.06 ± 0.11; for LKKGSQVEALFSYEATQPEDLEFQEGDIILVESKVNEEWLEGECKGKVGIFPKVFVEDC [L32E] it is -0.299 ± 0.19.

As for LKKGSQVEALFTYEATQPEDLEFQEGDIILVLSKVNEEWLEGECKGKVGIFPKVFVEDC [S12T], the abundance fitness is -0.119 ± 0.11.

LKKGSQVEALFSYEATQPEDLEFQEGDVILVLSKVNEEWLEGECKGKVGIFPKVFVEDC [I28V]: the abundance fitness is -0.264 ± 0.098.

As for LKKGSQVEALFSYEATQPEDLEFQEGDIILVLSKVNEEWLEGEGKGKVGIFPKVFVEDC [C44G], the abundance fitness is -0.383 ± 0.094. The figure for LKKGSQVEALFSYEATQPEDLEFQEGDIILVLSKVNEEWLEGECKGKVGIFPKRFVEDC [V54R] is 0.625 ± 0.082; for LKKGSQVEALFSYEATQPEDLEFQEGDIILVLSKRNEEWLEGECKGKVGIFPKVFVEDC [V35R] it is -0.235 ± 0.096. On to LKKGSQREALFSYEATQPEDLEFQEGDIILVLSKVNEEWLEGECKGKVGIFPKVFVEDC [V7R], for which the abundance fitness is -0.343 ± 0.2. Regarding LKKGSQFEALFSYEATQPEDLEFQEGDIILVLSKVNEEWLEGECKGKVGIFPKVFVEDC [V7F], the abundance fitness is -0.414 ± 0.43.

Turning to LKKGSQVEALFSYEATQPEDLEFQEGDIILVLSTVNEEWLEGECKGKVGIFPKVFVEDC [K34T], the abundance fitness came to 0.4 ± 0.097. The figure for LKKGSQVEALFSYEATQPEDLEFQEGDIILVLSEVNEEWLEGECKGKVGIFPKVFVEDC [K34E] is 0.466 ± 0.14; for LKKGSQVEALFSYEATQPEDLEFQEGDIILVLSKVNEPWLEGECKGKVGIFPKVFVEDC [E38P] it is -0.496 ± 0.19. The figure for LKKGSQVEALFSYEATQPEDLEFQEGDIILVLSKVNEEWLEGECKGKVEIFPKVFVEDC [G49E] is -0.63 ± 0.38. The figure for LKKGSQVEALFSYEATQPEDLEFQEGDIILVLSKVNEEWLEGECKGKVGIFPEVFVEDC [K53E] is -0.353 ± 0.24.

With LKKGSQVEALFSYEATQPEDLEFQEGDIILVLSKVNEEWLEGECKGKVGIFPYVFVEDC [K53Y], the abundance fitness was -0.722 ± 0.18. The figure for LKKGSQVEALFSYEATQPPDLEFQEGDIILVLSKVNEEWLEGECKGKVGIFPKVFVEDC [E19P] is -1.06 ± 0.34. Regarding LKKGSQVEALFSYEATQPIDLEFQEGDIILVLSKVNEEWLEGECKGKVGIFPKVFVEDC [E19I], the abundance fitness is -0.305 ± 0.11. For LKKGSQVEALFSYEATQPEDLEFQEGDIIPVLSKVNEEWLEGECKGKVGIFPKVFVEDC [L30P] the value was 0.04 ± 0.23; for LKKGSQVEALFSYEATQPEDLEFQEGDIIVVLSKVNEEWLEGECKGKVGIFPKVFVEDC [L30V], -0.07 ± 0.095; for LKKGSQVEALFSYEATQPEDLEFQEGDIILVLSKVNEEWLEGECKGKVGIFPKVFVEQC [D58Q], -0.079 ± 0.29. Take LKKGSQVEALFSYEATQPEDLEFQEGDIILVLSKVNEEWLEGECKGIVGIFPKVFVEDC [K47I]: the abundance fitness is -0.642 ± 0.15. On to LKKGSQVEALFSYEATQPEDLEFQEGDIILVLSKVNEEWLEGECKGKVGIFPKVFVEDY [C59Y], for which the abundance fitness is -0.204 ± 0.14. The figure for LKKGSQVESLFSYEATQPEDLEFQEGDIILVLSKVNEEWLEGECKGKVGIFPKVFVEDC [A9S] is -0.726 ± 0.25; for LKKGGQVEALFSYEATQPEDLEFQEGDIILVLSKVNEEWLEGECKGKVGIFPKVFVEDC [S5G] it is -1.17 ± 0.48. The figure for LKKGSQVEALFSYEATQPEDLEFQEGDIILVLSKVNEEWLEGECKGKVGIFPKVNVEDC [F55N] is -0.522 ± 0.14.

The values above are taken from the Human Domainome abundance scans (Beltran et al. 2025).
